Laboratory results taken from publication PMC6788056.

Substrate: NC(=O)c1ccc[n+]([C@@H]2O[C@H](COP(=O)([O-])OP(=O)(O)OC[C@H]3O[C@@H](n4cnc5c(N)ncnc54)[C@H](O)[C@@H]3O)[C@@H](O)[C@H]2O)c1
Assay: purified protein
Details: NAD^+ binding (NB) domain; varied: cofactor

B1: cUGDH (C. elegans UDP-glucose dehydrogenase) (Caenorhabditis elegans) (protein)
chain: MTDQVFGKVSKVVCVGAGYVGGPTCAMIAHKCPHITVTVVDMNTAKIAEWNSDKLPIYEPGLDEIVFAARGRNLFFSSDIPKAIAEADLIFISVNTPTKMYGRGKGMAPDLKYVESVSRTIAQYAGGPKIVVEKSTVPVKAAESIGCILREAQKNNENLKFQVLSNPEFLAEGTAMKDLANPDRVLIGGESSPEGLQAVAELVRIYENWVPRNRIITTNTWSSELSKLVANAFLAQRISSINSISAVCEATGAEISEVAHAVGYDTRIGSKFLQASVGFGGSCFQKDVLSLVYLCESLNLPQVADYWQGVININNWQRRRFADKIIAELFNTVTDKKIAIFGFAFKKNTGDTRESSAIHVIKHLMEEHAKLSVYDPKVQKSQMLNDLASVTSAQDVERLITVESDPYAAARGAHAIVVLTEWDEFVELNYSQIHNDMQHPAAIFDGRLILDQKALREIGFRTFAIGTSPDQAYNLFGTAGY
  K0.5: 333 ± 18 µM

B2: hUGDH (human UDP-glucose dehydrogenase) (Homo sapiens) (protein)
chain: MFEIKKICCIGAGYVGGPTCSVIAHMCPEIRVTVVDVNESRINAWNSPTLPIYEPGLKEVVESCRGKNLFFSTNIDDAIKEADLVFISVNTPTKTYGMGKGRAADLKYIEACARRIVQNSNGYKIVTEKSTVPVRAAESIRRIFDANTKPNLNLQVLSNPEFLAEGTAIKDLKNPDRVLIGGDETPEGQRAVQALCAVYEHWVPREKILTTNTWSSELSKLAANAFLAQRISSINSISALCEATGADVEEVATAIGMDQRIGNKFLKASVGFGGSCFQKDVLNLVYLCEALNLPEVARYWQQVIDMNDYQRRRFASRIIDSLFNTVTDKKIAILGFAFKKDTGDTRESSSIYISKYLMDEGAHLHIYDPKVPREQIVVDLSHPGVSEDDQVSRLVTISKDPYEACDGAHAVVICTEWDMFKELDYERIHKKMLKPAFIFDGRRVLDGLHNELQTIGFQIETIGKKVSSKRIPYAPSGEIPKFSLQDPPNKKPKV
  K0.5: 1094 ± 244 µM
